In patent US20260049138A1 (Chugai, published 2026):

Target: T1, CD3ε homodimer protein (human, UniProt P07766 23-126, limits assumed, sulfo-tag or biotin label in the ECL assays; amine-coupled to the chip in SPR)
T1 construct: also called human CD3ε homodimer protein; CD3 (CD3ε)
Assay: SPR Biacore T200; CD3ε homodimer on CM4 chip;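 also: Single-residue variant antibodies injected as analyte over CD3ε homodimer immobilized by amine coupling, run at 25 °C in HBS-EP+ buffer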

T1 sequence (P07766 23-126 limits assumed): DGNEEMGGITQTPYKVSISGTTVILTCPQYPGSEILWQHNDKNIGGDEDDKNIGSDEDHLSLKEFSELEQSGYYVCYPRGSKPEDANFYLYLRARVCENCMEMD

| Binder | ratio of amounts bound Z=Y/X (altered form / CE115HA000) |
| --- | --- |
| CE115HA000 N53K one-arm antibody (antibody, human IgG1, kappa, L234A L235A, N297A, name in Kabat numbering) heavy: QVQLVESGGGVVQPGRSLRLSCAASGFTFSNAWMHWVRQAPGKGLEWVAQIKAKSKNYATYYAESVKGRFTISRDDSKNSLYLQMNSLKTEDTAVYYCRYVHYGAYYGVDAWGQGTTVTVSSASTKGPSVFPLAPSSKSTSGGTAALGCLVKDYFPEPVTVSWNSGALTSGVHTFPAVLQSSGLYSLSSVVTVPSSSLGTQTYICNVNHKPSNTKVDKKVEPKSCDKTHTCPPCPAPEAAGGPSVFLFPPKPKDTLMISRTPEVTCVVVDVSHEDPEVKFNWYVDGVEVHNAKTKPREEQYASTYRVVSVLTVLHQDWLNGKEYKCKVSNKALPAPIEKTISKAKGQPREPQVYTLPPSRCELTKNQVSLSCAVKGFYPSDIAVEWESNGQPENNYKTTPPVLDSDGSFFLVSKLTVDKSRWQQGNVFSCSVMHEALHNHYTQKSLSLSPDYKDDDDK EPKSSDKTHTCPPCPAPELLGGPSVFLFPPKPKDTLMISRTPEVTCVVVDVSHEDPEVKFNWYVDGVEVHNAKTKPREEQYNSTYRVVSVLTVLHQDWLNGKEYKCKVSNKALPAPIEKTISKAKGQPREPQVCTLPPSRDELTKNQVSLWCLVKGFYPSDIAVEWESNGQPENNYKTTPPVLDSDGSFFLYSKLTVDKSRWQQGNVFSCSVMHEALHNRYTQKSLSLSP light: DIVMTQSPLSLPVTPGEPASISCRSSQSLVHSNRNTYLHWYQQKPGQAPRLLIYKVSNRFSGVPDRFSGSGSGTDFTLKISRVEAEDVGVYYCGQGTQVPYTFGQGTKLEIKRTVAAPSVFIFPPSDEQLKSGTASVVCLLNNFYPREAKVQWKVDNALQSGNSQESVTEQDSKDSTYSLSSTLTLSKADYEKHKVYACEVTHQGLSSPVTKSFNRGEC | 0.78 |
| CE115HA000 N53W one-arm antibody (antibody, human IgG1, kappa, L234A L235A, N297A, name in Kabat numbering) heavy: QVQLVESGGGVVQPGRSLRLSCAASGFTFSNAWMHWVRQAPGKGLEWVAQIKAKSWNYATYYAESVKGRFTISRDDSKNSLYLQMNSLKTEDTAVYYCRYVHYGAYYGVDAWGQGTTVTVSSASTKGPSVFPLAPSSKSTSGGTAALGCLVKDYFPEPVTVSWNSGALTSGVHTFPAVLQSSGLYSLSSVVTVPSSSLGTQTYICNVNHKPSNTKVDKKVEPKSCDKTHTCPPCPAPEAAGGPSVFLFPPKPKDTLMISRTPEVTCVVVDVSHEDPEVKFNWYVDGVEVHNAKTKPREEQYASTYRVVSVLTVLHQDWLNGKEYKCKVSNKALPAPIEKTISKAKGQPREPQVYTLPPSRCELTKNQVSLSCAVKGFYPSDIAVEWESNGQPENNYKTTPPVLDSDGSFFLVSKLTVDKSRWQQGNVFSCSVMHEALHNHYTQKSLSLSPDYKDDDDK EPKSSDKTHTCPPCPAPELLGGPSVFLFPPKPKDTLMISRTPEVTCVVVDVSHEDPEVKFNWYVDGVEVHNAKTKPREEQYNSTYRVVSVLTVLHQDWLNGKEYKCKVSNKALPAPIEKTISKAKGQPREPQVCTLPPSRDELTKNQVSLWCLVKGFYPSDIAVEWESNGQPENNYKTTPPVLDSDGSFFLYSKLTVDKSRWQQGNVFSCSVMHEALHNRYTQKSLSLSP light: DIVMTQSPLSLPVTPGEPASISCRSSQSLVHSNRNTYLHWYQQKPGQAPRLLIYKVSNRFSGVPDRFSGSGSGTDFTLKISRVEAEDVGVYYCGQGTQVPYTFGQGTKLEIKRTVAAPSVFIFPPSDEQLKSGTASVVCLLNNFYPREAKVQWKVDNALQSGNSQESVTEQDSKDSTYSLSSTLTLSKADYEKHKVYACEVTHQGLSSPVTKSFNRGEC | 0.88 |
| CE115HA000 N53Y one-arm antibody (antibody, human IgG1, kappa, L234A L235A, N297A, name in Kabat numbering) heavy: QVQLVESGGGVVQPGRSLRLSCAASGFTFSNAWMHWVRQAPGKGLEWVAQIKAKSYNYATYYAESVKGRFTISRDDSKNSLYLQMNSLKTEDTAVYYCRYVHYGAYYGVDAWGQGTTVTVSSASTKGPSVFPLAPSSKSTSGGTAALGCLVKDYFPEPVTVSWNSGALTSGVHTFPAVLQSSGLYSLSSVVTVPSSSLGTQTYICNVNHKPSNTKVDKKVEPKSCDKTHTCPPCPAPEAAGGPSVFLFPPKPKDTLMISRTPEVTCVVVDVSHEDPEVKFNWYVDGVEVHNAKTKPREEQYASTYRVVSVLTVLHQDWLNGKEYKCKVSNKALPAPIEKTISKAKGQPREPQVYTLPPSRCELTKNQVSLSCAVKGFYPSDIAVEWESNGQPENNYKTTPPVLDSDGSFFLVSKLTVDKSRWQQGNVFSCSVMHEALHNHYTQKSLSLSPDYKDDDDK EPKSSDKTHTCPPCPAPELLGGPSVFLFPPKPKDTLMISRTPEVTCVVVDVSHEDPEVKFNWYVDGVEVHNAKTKPREEQYNSTYRVVSVLTVLHQDWLNGKEYKCKVSNKALPAPIEKTISKAKGQPREPQVCTLPPSRDELTKNQVSLWCLVKGFYPSDIAVEWESNGQPENNYKTTPPVLDSDGSFFLYSKLTVDKSRWQQGNVFSCSVMHEALHNRYTQKSLSLSP light: DIVMTQSPLSLPVTPGEPASISCRSSQSLVHSNRNTYLHWYQQKPGQAPRLLIYKVSNRFSGVPDRFSGSGSGTDFTLKISRVEAEDVGVYYCGQGTQVPYTFGQGTKLEIKRTVAAPSVFIFPPSDEQLKSGTASVVCLLNNFYPREAKVQWKVDNALQSGNSQESVTEQDSKDSTYSLSSTLTLSKADYEKHKVYACEVTHQGLSSPVTKSFNRGEC | 0.63 |

The remaining lines, values ahead:

| ratio of amounts bound Z=Y/X (altered form / CE115HA000) | Binder |
| --- | --- |
| 1.1 | CE115HA000 N53Q one-arm antibody (antibody, human IgG1, kappa, L234A L235A, N297A, name in Kabat numbering) heavy: QVQLVESGGGVVQPGRSLRLSCAASGFTFSNAWMHWVRQAPGKGLEWVAQIKAKSQNYATYYAESVKGRFTISRDDSKNSLYLQMNSLKTEDTAVYYCRYVHYGAYYGVDAWGQGTTVTVSSASTKGPSVFPLAPSSKSTSGGTAALGCLVKDYFPEPVTVSWNSGALTSGVHTFPAVLQSSGLYSLSSVVTVPSSSLGTQTYICNVNHKPSNTKVDKKVEPKSCDKTHTCPPCPAPEAAGGPSVFLFPPKPKDTLMISRTPEVTCVVVDVSHEDPEVKFNWYVDGVEVHNAKTKPREEQYASTYRVVSVLTVLHQDWLNGKEYKCKVSNKALPAPIEKTISKAKGQPREPQVYTLPPSRCELTKNQVSLSCAVKGFYPSDIAVEWESNGQPENNYKTTPPVLDSDGSFFLVSKLTVDKSRWQQGNVFSCSVMHEALHNHYTQKSLSLSPDYKDDDDK EPKSSDKTHTCPPCPAPELLGGPSVFLFPPKPKDTLMISRTPEVTCVVVDVSHEDPEVKFNWYVDGVEVHNAKTKPREEQYNSTYRVVSVLTVLHQDWLNGKEYKCKVSNKALPAPIEKTISKAKGQPREPQVCTLPPSRDELTKNQVSLWCLVKGFYPSDIAVEWESNGQPENNYKTTPPVLDSDGSFFLYSKLTVDKSRWQQGNVFSCSVMHEALHNRYTQKSLSLSP light: DIVMTQSPLSLPVTPGEPASISCRSSQSLVHSNRNTYLHWYQQKPGQAPRLLIYKVSNRFSGVPDRFSGSGSGTDFTLKISRVEAEDVGVYYCGQGTQVPYTFGQGTKLEIKRTVAAPSVFIFPPSDEQLKSGTASVVCLLNNFYPREAKVQWKVDNALQSGNSQESVTEQDSKDSTYSLSSTLTLSKADYEKHKVYACEVTHQGLSSPVTKSFNRGEC |
| 0.83 | CE115HA000 N53S one-arm antibody (antibody, human IgG1, kappa, L234A L235A, N297A, name in Kabat numbering) heavy: QVQLVESGGGVVQPGRSLRLSCAASGFTFSNAWMHWVRQAPGKGLEWVAQIKAKSSNYATYYAESVKGRFTISRDDSKNSLYLQMNSLKTEDTAVYYCRYVHYGAYYGVDAWGQGTTVTVSSASTKGPSVFPLAPSSKSTSGGTAALGCLVKDYFPEPVTVSWNSGALTSGVHTFPAVLQSSGLYSLSSVVTVPSSSLGTQTYICNVNHKPSNTKVDKKVEPKSCDKTHTCPPCPAPEAAGGPSVFLFPPKPKDTLMISRTPEVTCVVVDVSHEDPEVKFNWYVDGVEVHNAKTKPREEQYASTYRVVSVLTVLHQDWLNGKEYKCKVSNKALPAPIEKTISKAKGQPREPQVYTLPPSRCELTKNQVSLSCAVKGFYPSDIAVEWESNGQPENNYKTTPPVLDSDGSFFLVSKLTVDKSRWQQGNVFSCSVMHEALHNHYTQKSLSLSPDYKDDDDK EPKSSDKTHTCPPCPAPELLGGPSVFLFPPKPKDTLMISRTPEVTCVVVDVSHEDPEVKFNWYVDGVEVHNAKTKPREEQYNSTYRVVSVLTVLHQDWLNGKEYKCKVSNKALPAPIEKTISKAKGQPREPQVCTLPPSRDELTKNQVSLWCLVKGFYPSDIAVEWESNGQPENNYKTTPPVLDSDGSFFLYSKLTVDKSRWQQGNVFSCSVMHEALHNRYTQKSLSLSP light: DIVMTQSPLSLPVTPGEPASISCRSSQSLVHSNRNTYLHWYQQKPGQAPRLLIYKVSNRFSGVPDRFSGSGSGTDFTLKISRVEAEDVGVYYCGQGTQVPYTFGQGTKLEIKRTVAAPSVFIFPPSDEQLKSGTASVVCLLNNFYPREAKVQWKVDNALQSGNSQESVTEQDSKDSTYSLSSTLTLSKADYEKHKVYACEVTHQGLSSPVTKSFNRGEC |
| 0.86 | CE115HA000 N54A one-arm antibody (antibody, human IgG1, kappa, L234A L235A, N297A, name in Kabat numbering) heavy: QVQLVESGGGVVQPGRSLRLSCAASGFTFSNAWMHWVRQAPGKGLEWVAQIKAKSNAYATYYAESVKGRFTISRDDSKNSLYLQMNSLKTEDTAVYYCRYVHYGAYYGVDAWGQGTTVTVSSASTKGPSVFPLAPSSKSTSGGTAALGCLVKDYFPEPVTVSWNSGALTSGVHTFPAVLQSSGLYSLSSVVTVPSSSLGTQTYICNVNHKPSNTKVDKKVEPKSCDKTHTCPPCPAPEAAGGPSVFLFPPKPKDTLMISRTPEVTCVVVDVSHEDPEVKFNWYVDGVEVHNAKTKPREEQYASTYRVVSVLTVLHQDWLNGKEYKCKVSNKALPAPIEKTISKAKGQPREPQVYTLPPSRCELTKNQVSLSCAVKGFYPSDIAVEWESNGQPENNYKTTPPVLDSDGSFFLVSKLTVDKSRWQQGNVFSCSVMHEALHNHYTQKSLSLSPDYKDDDDK EPKSSDKTHTCPPCPAPELLGGPSVFLFPPKPKDTLMISRTPEVTCVVVDVSHEDPEVKFNWYVDGVEVHNAKTKPREEQYNSTYRVVSVLTVLHQDWLNGKEYKCKVSNKALPAPIEKTISKAKGQPREPQVCTLPPSRDELTKNQVSLWCLVKGFYPSDIAVEWESNGQPENNYKTTPPVLDSDGSFFLYSKLTVDKSRWQQGNVFSCSVMHEALHNRYTQKSLSLSP light: DIVMTQSPLSLPVTPGEPASISCRSSQSLVHSNRNTYLHWYQQKPGQAPRLLIYKVSNRFSGVPDRFSGSGSGTDFTLKISRVEAEDVGVYYCGQGTQVPYTFGQGTKLEIKRTVAAPSVFIFPPSDEQLKSGTASVVCLLNNFYPREAKVQWKVDNALQSGNSQESVTEQDSKDSTYSLSSTLTLSKADYEKHKVYACEVTHQGLSSPVTKSFNRGEC |
